Laboratory results: patent publication US20140127174A1 (ZEALAND PHARMA A S, published 2014)

Assays:
[1] = target: human glucagon-like peptide 1 receptor (GLP-1-R) (human, UniProt P43220 24-463); assay: cell-based or functional assay
[2] = target: human glucagon receptor (Glucagon-R) (human, UniProt P47871 26-477); assay: cell-based or functional assay

human glucagon-like peptide 1 receptor (GLP-1-R), sequence (P43220 24-463): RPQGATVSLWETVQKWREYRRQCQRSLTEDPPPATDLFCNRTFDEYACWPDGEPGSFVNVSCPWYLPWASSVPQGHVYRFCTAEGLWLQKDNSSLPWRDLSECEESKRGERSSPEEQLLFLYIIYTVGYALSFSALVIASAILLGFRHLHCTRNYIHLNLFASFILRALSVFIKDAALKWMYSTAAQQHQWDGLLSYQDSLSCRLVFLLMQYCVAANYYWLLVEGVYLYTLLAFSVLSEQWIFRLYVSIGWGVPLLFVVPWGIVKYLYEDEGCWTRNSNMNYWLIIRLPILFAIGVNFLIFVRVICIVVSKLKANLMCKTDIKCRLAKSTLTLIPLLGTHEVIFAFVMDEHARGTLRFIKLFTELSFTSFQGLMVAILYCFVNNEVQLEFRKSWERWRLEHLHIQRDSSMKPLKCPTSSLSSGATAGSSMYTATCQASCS

## H-HSQGTFTSDYSLYLDSRRAKDFIEWLERA-NH2 (not fully specified) [L006-0050 (SEQ ID NO: 12)]
[1]
  EC50 of cAMP formation in HEK293 cells expressing human GLP-1-R (corrected to a purity of 50%): 0.17 nM
[2]
  EC50 of cAMP formation in HEK293 cells expressing human Glucagon-R (corrected to a purity of 50%): 0.1 nM
